The values that follow come from PMC4313936, “N-Terminal and C-Terminal Domains of Calmodulin Mediate FADD and TRADD Interaction” (PLoS ONE, 2015).

The target in the assay is T1, His-CaM (native, Xenopus laevis) (Xenopus laevis, UniProt P0DP33 1-149).
T1 construct: calmodulin, Xenopus laevis, plasmid pET-15b-CaM [41]; also called native untreated CaM; recombinant His-CaM; source: E. coli BL21 (DE3), purified as previously described [8]
Briefly: pull-down; GST proteins (5 μg) bound to glutathione-sepharose beads incubated with soluble recombinant CaM proteins (His-CaM forms, no-tagged wild-type CaM, Met-to-Leu mutants); 10 mM potassium phosphate pH 7.0, 100 mM KCl, 1% Brij; 2 mM Ca2+ or EGTA in Fig. 2E; western blot with CaM antibody. Conditions: both partners purified. In general terms: A western blot detects proteins with antibodies after separation by electrophoresis.

B1: GST-TRADD R235A (natural protein)
chain: MAAGQNGHEEWVGSAYLFVESSLDKVVLSDAYAHPQQKVAVYRALQAALAESGGSPDVLQMLKIHRSDPQLIVQLRFCGRQPCGRFLRAYREGALRAALQRSLAAALAQHSVPLQLELRAGAERLDALLADEERCLSCILAQQPDRLRDEELAELEDALRNLKCGSGARGGDGEVASAPLQPPVPSLSEVKPPPPPPPAQTFLFQGQPVVNRPLSLKDQQTFARSVGLKWRKVGASLQRGCRALRDPALDSLAYEYEREGLYEQAFQLLRRFVQAEGRRATLQRLVEALEENELTSLAEDLLGLTDPNGGLA
notes: TRADD, human, point mutant of GST-TRADD; also called R235A TRADD mutant; source: E. coli BL21 (DE3)
For the molecule B1, the binding result is given as “binds”.
